Measurements from the supplement of paper PMC7877785.
± gives the uncertainty stated by the source.

Assay: self-splicing fitness, log relative to wild type (ln ratio); higher = more splicing; Tetrahymena group I intron in knt gene, E. coli kanamycin selection, DiMSum; sequences stand for … in CUCUCU…GGAGGGAAAAGUUAUCAGGCAUGCACCUGGUAGCUAGUCUUUAAACCAAUAGAUUGCAUCGGUUUAAAAGGCAAGACCGUCAAAUUGCGGGAAAGGGGUCAACAGCCGUUCAGUACCAAGUCUCAGGGGAAACUUUGAGAUGGCCUUGCAAAGGGUAUGGUAAUAAGCUGACGGACAUGGUCCUAACCACGCAGCCAAGUCCUAAGUCAACAGAUCUUCUGUUGAUAUGGAUGCAGUUCACAGACUAAAUGUCGGUCGGGGAAGAUGUAUUCUUCUCAUAAGAUAUAGUCGGACCUCUCCUUAAUGGGAGCUAGCGGAUGAAGUGAUGCAACACUGGAGCCGCUGGGAACUAAUUUGUAUGCGAAAGUAUAUUGAUUAGUUUUGGAGUACUCGUGGUCG
Outline: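 Pooled colonies went to amplicon sequencing on an Illumina HiSeq 2500 after six replicate transformations. The plates were LB agar with 100 μg/mL carbenicillin, 50 μM IPTG and 0.2% rhamnose, with or without 25 μg/mL kanamycin, incubated overnight at 37°C or 30°C. The E. coli BL21(DE3) library had all eight P1ex-region intron nucleotides randomised, the intron placed in the knt kanamycin-resistance gene on pET-22b(+). DiMSum fitness is the error-weighted combination of replicate fold changes, kanamycin against none, normalised to wild type.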

Sequence	self-splicing fitness (ln) (30 °C)	self-splicing fitness (ln) (37 °C)
GUUCAGCAAUAUUACGUUGA	-3.12 ± 0.28	-1.57 ± 0.17
GUUCAGCAAUAUUACGUUUC	-0.965 ± 0.07	-0.339 ± 0.084
GUUGAGCAAUAUUACGAGAG	-3.95 ± 0.4	-2.63 ± 0.41
GUUGAGCAAUAUUACGCAUC	-1.26 ± 0.25	–
GUUGAGCAAUAUUACGCGGU	-3.32 ± 0.41	-2.73 ± 0.34
GUUGAGCAAUAUUACGCUAG	-3.01 ± 0.44	–
GUUGAGCAAUAUUACGCUGU	-4.02 ± 0.22	-2.15 ± 0.19
GUUGAGCAAUAUUACGGAAC	-1.6 ± 0.43	–
GUUGAGCAAUAUUACGGAGC	-1.01 ± 0.2	-2.82 ± 0.3
GUUGAGCAAUAUUACGGAUC	-1.91 ± 0.14	-1.16 ± 0.14
GUUGAGCAAUAUUACGGCCA	–	-0.675 ± 0.24
GUUGAGCAAUAUUACGGCUA	-0.763 ± 0.18	-0.798 ± 0.19
GUUGAGCAAUAUUACGGUAG	-4.24 ± 0.46	-1.94 ± 0.41
GUUGAGCAAUAUUACGGUUU	-4.2 ± 0.33	-2.73 ± 0.32
GUUGAGCAAUAUUACGUAUU	-3.74 ± 0.47	–
GUUGAGCAAUAUUACGUCUA	-2.72 ± 0.46	-0.927 ± 0.24
GUUGAGCAAUAUUACGUGCG	-3.02 ± 0.21	-2.07 ± 0.25
GUUGAGCAAUAUUACGUGGG	-3.09 ± 0.23	-1.97 ± 0.18
GUUGAGCAAUAUUACGUGUG	-3.65 ± 0.34	-3.15 ± 0.32
GUUGAGCAAUAUUACGUUCA	-2.3 ± 0.5	-1.52 ± 0.25
GUUUAGCAAUAUUACGAACG	-1.78 ± 0.21	-1.03 ± 0.29
GUUUAGCAAUAUUACGACCU	-1.03 ± 0.11	-0.456 ± 0.14
GUUUAGCAAUAUUACGACUU	-0.551 ± 0.11	0.304 ± 0.14
GUUUAGCAAUAUUACGAUAC	-1.44 ± 0.18	-0.147 ± 0.28
GUUUAGCAAUAUUACGAUCC	-0.72 ± 0.26	-0.434 ± 0.32

Sequence	self-splicing fitness (ln) (30 °C)	self-splicing fitness (ln) (37 °C)
GUUUAGCAAUAUUACGAUUC	-0.603 ± 0.098	0.273 ± 0.14
GUUUAGCAAUAUUACGCAAC	-3.59 ± 0.48	-2.14 ± 0.39
GUUUAGCAAUAUUACGCAUG	-2.59 ± 0.18	-0.4 ± 0.18
GUUUAGCAAUAUUACGCCAU	-1.68 ± 0.4	–
GUUUAGCAAUAUUACGCGAG	-1.48 ± 0.17	-0.934 ± 0.16
GUUUAGCAAUAUUACGCGCG	-0.802 ± 0.1	-0.0312 ± 0.18
GUUUAGCAAUAUUACGCGGC	-1.26 ± 0.49	–
GUUUAGCAAUAUUACGCGGU	-2.3 ± 0.45	-1.95 ± 0.36
GUUUAGCAAUAUUACGGACA	-1.68 ± 0.25	-1.44 ± 0.25
GUUUAGCAAUAUUACGGCUU	-1.08 ± 0.13	-0.894 ± 0.12
GUUUAGCAAUAUUACGGGAU	-2.57 ± 0.14	-1 ± 0.15
GUUUAGCAAUAUUACGGGGA	-3.57 ± 0.37	-1.41 ± 0.22
GUUUAGCAAUAUUACGGUGA	-1.84 ± 0.2	-0.461 ± 0.18
GUUUAGCAAUAUUACGUAGG	-2.77 ± 0.13	-0.822 ± 0.14
GUUUAGCAAUAUUACGUAUG	-2.29 ± 0.21	-0.712 ± 0.17
GUUUAGCAAUAUUACGUAUU	-2.91 ± 0.21	-1.38 ± 0.17
GUUUAGCAAUAUUACGUCGG	-2.06 ± 0.18	-2.12 ± 0.21
GUUUAGCAAUAUUACGUUGU	-4.02 ± 0.21	-2.17 ± 0.16
GUUUAGCAAUAUUACGUUUA	-2.69 ± 0.23	-0.853 ± 0.17
UAAAAGCAAUAUUACGAAAG	-2.21 ± 0.17	-1.56 ± 0.16
UAAAAGCAAUAUUACGAAGA	-2.44 ± 0.11	-1.12 ± 0.097
UAAAAGCAAUAUUACGAAGC	-3.23 ± 0.3	-3.29 ± 0.46
UAAAAGCAAUAUUACGAAUA	-0.61 ± 0.11	-0.627 ± 0.11
UAAAAGCAAUAUUACGACGU	-0.791 ± 0.13	-0.527 ± 0.12
UAAAAGCAAUAUUACGAUGC	-3.82 ± 0.29	-2.3 ± 0.18
